From the supplement of paper PMC10567573

B1: EFHC1 (parent)
chain: NIYYYLEDDSMSVIEPVVENSGIL

Variants of: B1
Test: protein stability index of a GFP-peptide fusion (GPS, HEK-293T) (PSI 1-6); higher = more stable
Settings: c terminus: a fixed tail appended
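Also: lentivirally expressed fusions sorted by FACS into six bins by GFP to DsRed ratio, PSI derived from sequencing read proportions per bin multiplied by bin number.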

Variant | protein stability index
D9H | 2.13
D9I | 1.56
D9F | 2.08
D9Y | 4.3
D9R | 2.09
D9S | 1.68
D9N | 1.69
D9G | 2.12
D9A | 2.09
D9P | 2.02
E7D | 1.89
E7G | 1.65
E7P | 1.92
E7T | 2.38
E7C | 2.43
E7A | 1.4
E7S | 1.46
E7L | 2.33
E7W | 1.41
E7M | 2.09
E7K | 1.91
V13P | 2.5
V13W | 2.11
V13H | 2.24

Variant | protein stability index
V13Y | 1.31
V13S | 2.17
V13N | 2.82
V13K | 2.08
V13C | 1.85
V13M | 2.23
V13I | 2.15
V13D | 2.86
N20Q | 1.67
N20K | 2.06
N20V | 2.71
N20E | 2.46
N20W | 2.37
N20T | 1.71
N20P | 2.95
N20D | 1.7
N20R | 1.33
N20A | 1.69
N20F | 1.48
M11P | 3.39
M11S | 2.46
M11I | 2.51
M11T | 2.38
M11H | 2.56

Variant | protein stability index
M11R | 2.32
M11W | 1.76
M11L | 2.07
M11D | 3.39
M11Q | 2.55
I14K | 3.07
I14E | 3.1
I14G | 2.51
I14W | 1.86
I14C | 2.28
I14D | 3.11
I14F | 1.98
I14Y | 1.93
I14Q | 1.85
I14S | 2.43
I14T | 2.1
Y3Q | 3.12
Y3H | 2.81
Y3G | 3.43
Y3N | 3.38
Y3E | 3.76
Y3C | 2.9
Y3F | 2.07
Y3W | 1.82

Variant | protein stability index
Y3R | 3.04
Y3L | 2.15
Y3K | 2.72
Y3S | 3.2
Y3V | 2.38
Y3P | 3.39
I23Y | 2.51
I23N | 2.71
I23V | 1.8
I23A | 2.82
I23G | 2.14
I23R | 1.99
I23W | 2.47
I23T | 3.04
I23Q | 2.78
S21Y | 1.39
S21T | 1.82
S21M | 1.78
S21H | 2.09
S21F | 1.45
S21V | 1.6
S21R | 1.74
S21I | 1.48
S21C | 2.57

Variant | protein stability index
S21D | 2.4
S21P | 2.4
S21E | 2.31
V18H | 2.11
V18R | 1.92
V18M | 1.66
V18T | 2.23
V18W | 1.13
V18G | 3.04
V18C | 1.82
V18Q | 2.38
V18A | 2.19
V18K | 2.33
V18I | 2.23
V18F | 1.85
V18Y | 1.67
V18D | 2.99
Y4Q | 2.39
Y4W | 2.99
Y4C | 2.31
Y4P | 4.01
Y4A | 2.12
Y4S | 3.48
Y4N | 2.35

Variant | protein stability index
Y4M | 2.18
Y4T | 2.91
Y4L | 1.42
Y4D | 2.74
Y4K | 2.66
S10K | 2.18
S10I | 2.1
S10Y | 1.9
S10T | 1.93
S10W | 2.02
S10E | 2.57
S10P | 2.03
S10A | 2.02
S10V | 1.68
S10M | 2.13
S10R | 3.15
S10L | 1.14
G22D | 2.44
G22M | 1.46
G22R | 1.55
G22H | 1.71
G22V | 2.43
G22Q | 1.82
G22I | 1.81

Variant | protein stability index
G22T | 1.42
G22K | 1.78
G22S | 1.7
G22L | 1.51
G22A | 2.19
Y5C | 2.45
Y5D | 3.64
Y5H | 2.69
Y5M | 2.36
Y5F | 1.94
Y5G | 3.27
Y5L | 2.51
Y5T | 2.79
Y5K | 3.41
Y5S | 3.23
Y5A | 3.1
Y5V | 2.39
Y5I | 1.92
Y5R | 3.35
P16K | 2.58
P16T | 2.94
P16F | 2.73
P16V | 2.86
